Results as given in PMC9352546, “The Casein kinase 1α agonist pyrvinium attenuates Wnt-mediated CK1α degradation via interaction with the E3 ubiquitin ligase component Cereblon” (The Journal of Biological Chemistry, 2022).

Target: T1, FLAG-tagged Cereblon (CRBN) (human, UniProt Q96SW2-2 1-441)
T1 construct: also called FLAG-CRBN; Wnt-modulated CRBN; source: HEK293T, transfected (pcDNA3.1(+)), cells treated with PBS or Wnt3a, immunopurified from lysate on beads
Assay: pull-down; FLAG-CRBN immunopurified from PBS- or Wnt3a-treated (4 h) HEK293T cells, held on BSA-blocked beads; GST-CK1α preincubated with DMSO or pyrvinium at 4 °C for 10 min, then incubated with the beads in binding buffer at 4 °C for 1 h; one 5-min wash; elution in Laemmli buffer, immunoblot
Conditions: both partners purified

T1 sequence (Q96SW2 other isoform, or with tags, fused parts or gaps): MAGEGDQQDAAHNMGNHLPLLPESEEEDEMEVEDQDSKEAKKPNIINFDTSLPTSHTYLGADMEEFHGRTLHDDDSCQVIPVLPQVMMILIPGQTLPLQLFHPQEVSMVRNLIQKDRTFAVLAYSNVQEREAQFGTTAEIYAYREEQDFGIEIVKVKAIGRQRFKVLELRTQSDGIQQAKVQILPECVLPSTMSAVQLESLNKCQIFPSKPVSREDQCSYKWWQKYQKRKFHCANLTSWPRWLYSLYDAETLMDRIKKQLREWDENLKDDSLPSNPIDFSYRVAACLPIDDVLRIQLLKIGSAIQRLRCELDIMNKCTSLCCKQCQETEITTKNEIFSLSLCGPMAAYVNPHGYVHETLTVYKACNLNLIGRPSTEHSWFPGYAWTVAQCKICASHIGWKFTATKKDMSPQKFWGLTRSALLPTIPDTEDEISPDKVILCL

B1: Recombinant human glutathione-S-transferase (GST)-CK1α protein (natural protein, UniProt P48729-1 1-337, looked up)
chain: MASSSGSKAEFIVGGKYKLVRKIGSGSFGDIYLAINITNGEEVAVKLESQKARHPQLLYESKLYKILQGGVGIPHIRWYGQEKDYNVLVMDLLGPSLEDLFNFCSRRFTMKTVLMLADQMISRIEYVHTKNFIHRDIKPDNFLMGIGRHCNKLFLIDFGLAKKYRDNRTRQHIPYREDKNLTGTARYASINAHLGIEQSRRDDMESLGYVLMYFNRTSLPWQGLKAATKKQKYEKISEKKMSTPVEVLCKGFPAEFAMYLNYCRGLRFEEAPDYMYLRQLFRILFRTLNHQYDYTFDWTMLKQKAAQQAASSSGQGQQAQTPTGKQTDKTKSNMKGF
notes: Preincubated with DMSO or pyrvinium before it was added to the FLAG-CRBN beads; also called GST-tagged CK1α; recombinant CK1α; source: Sf9 insect cells, purified (GenScript)
- binding result: binds
